Assay results from the Human Domainome abundance scans (Beltran et al. 2025).

B1: Ankyrin repeat and SOCS box protein 14, residues 532 to 572; numbered along this chain, A6NK59 (parent)
chain: RSLKHLCRLKIRKCMGRLHLRCPVFMSFLPLPNRLKAYVLY
B2: GA-binding protein alpha chain, residues 172 to 250; numbered along this chain, Q06546 (parent)
chain: GYRKEQERLGIPYDPIQWSTDQVLHWVVWVMKEFSMTDIDLTTLNISGRELCSLNQEDFFQRVPRGEILWSHLELLRKY

Variants of: B1
Test: abundance fitness (aPCA) (normalised: wild type 0, dead -1); higher = more abundant; growth selection in yeast, the domain comes from the species named
Settings: Homo sapiens

Abundance fitness: each site, then its substitutions
K4: D -0.808 | G -0.157 | A 0.041 | E -0.596
L3: W 0.011 | Q -0.655 | M -0.163 | C -0.517 | A -0.939 | T -0.668 | R -0.759 | P -0.949 | E -0.142 | D -0.331 | H -0.878 | V -0.547 | G -0.686 | K -0.575 | N -0.529
S2: T -0.196 | L 0.136 | K -0.053 | W -0.097 | C -0.572 | I 0.335 | A -0.37 | M 0.48 | R -0.153 | D 0.299 | V -0.339 | E -0.057 | P -0.521
R1: S -0.39 | K -0.107 | A -0.414 | N 0.093 | V -0.1 | T -0.372 | M 0.386 | C -0.113 | E -0.033 | G -0.042 | W 0.045 | F 0.243

Variants of: B2
Test: as above
Settings: Homo sapiens

Abundance fitness, by site and new letter:
R77: K 0.016 | V -0.343 | W -0.873 | G -0.515 | M -0.348 | H -0.07 | S -0.311 | N -0.119 | F -0.859 | C -0.255 | I -0.23 | A -0.547 | L -0.165 | T -0.246 | D -0.382 | Q -0.299 | E -0.36
I68: S -0.076 | N -0.194 | P 0.023 | V -0.021 | W -0.115 | E -0.044 | M -0.091 | Y -0.037 | T -0.065 | G -0.087 | L -0.037 | H -0.095 | A 0.017 | F -0.053 | Q -0.077 | C -0.055
S71: G -0.01 | P -0.102 | V -0.131 | I -0.157 | R -0.034 | W -0.042 | L -0.156 | A -0.046 | N -0.115 | Q 0.01 | H -0.029 | T 0.021 | D 0.027 | Y -0.027 | F -0.102 | C -0.167 | M -0.162 | E -0.021 | K -0.102
E67: H 0.004 | D -0.133 | K 0.064 | V -0.118 | R -0.101 | L -0.249 | S -0.057 | A -0.029 | W -0.153 | G -0.027 | F -0.249 | M -0.147 | Q -0.121 | I -0.189 | T -0.038 | P -0.239 | N -0.077 | C -0.19
Y79: L -0.032 | R -0.054 | M -0.299 | P 0.009 | V -0.096 | S 0.038 | K 0.146 | E 0.01 | W -0.09 | Q 0.006 | D 0.06 | C -0.061 | F 0.062 | A -0.021 | N 0.107 | I -0.09 | G 0.031 | T -0.148 | H 0.002
R65: E 0.033 | F -0.177 | D 0.084 | K -0.013 | A -0.003 | C -0.004 | H -0.111 | P -0.455 | G 0.007 | Y -0.033 | N -0.07 | V -0.157 | M -0.127 | L -0.141
L69: Y -0.265 | I -0.499 | N -0.974 | H -0.259 | R -0.977 | M -0.124 | C -0.57 | F -0.027 | W -0.432 | A -0.311 | D -0.758 | E -0.934 | P -1.06 | G -1.04 | V -0.393 | K -1 | S -0.882
H72: A -0.244 | T -0.38 | R -0.295 | I -0.338 | E 0.009 | K -0.282 | L -0.751 | Q 0.019 | F -0.888 | P -1 | V -0.554 | M -0.322 | Y -0.46 | D -0.214 | W -1.02 | S -0.143
R62: L 0.008 | G -0.426 | Q -0.106 | T -0.194 | M 0.07 | H -0.213 | Y -0.133 | K -0.014 | S -0.156 | V -0.039 | P -1.06 | W -0.314
P64: E -0.23 | G -0.158 | C -0.288 | M -0.952 | V -0.406 | N -0.177 | K -0.159 | T -0.333 | I -0.554 | A -0.295 | Q -0.266 | D -0.738 | F -0.611 | W -0.67 | S -0.219 | Y -0.744
K78: H -0.015 | R 0.003 | I -0.009 | V -0.078 | A 0 | E -0.05 | P -0.195 | Q -0.059 | W -0.23 | D 0.023 | G 0.033 | L -0.135 | N 0.096 | Y -0.208 | S -0.045 | F -0.086 | M -0.071
V63: D -0.667 | Q -0.235 | G -0.218 | R -1.06 | P -0.667 | W -0.042 | Y -0.221 | L -0.073 | H -0.886 | N -0.384 | A -0.075 | K -0.864 | F 0.018 | M -0.113 | I -0.077 | E -0.563 | C -0.012 | T -0.172
G66: K -0.728 | I -0.772 | R -0.562 | D -0.889 | H -0.608 | L -0.795 | M -0.967 | T -0.735 | Q -0.773 | P -0.019 | C -0.298 | A -0.025 | S -0.199 | V -0.835
L75: T 0.024 | R -0.012 | W -0.104 | Q -0.08 | F -0.136 | I 0.107 | M -0.042 | V -0.193 | A -0.02 | E 0.024 | G -0.132 | Y 0.01 | K -0.122 | H 0.031 | S 0.046 | D -0.022
L73: V -0.376 | P -0.658 | E -0.758 | W -0.173 | K -0.422 | G -0.937 | Q -0.713 | C -0.979 | A -0.736 | M -0.347 | Y -0.962 | I -0.542 | N -0.979 | T -0.97
W70: E -0.801 | T -1.05 | G -0.843 | C -0.793 | N -0.766 | S -0.913 | A -0.748 | Y -0.058 | V -0.92 | M -0.557 | R -0.526 | F -0.181 | Q -0.875 | H -0.494 | K -0.872
E74: W -0.336 | L -0.109 | I -0.302 | N -0.226 | D -0.023 | S -0.051 | F -0.322 | P -0.904 | G -0.066 | C -0.138 | K -0.106 | Q -0.075 | A -0.061 | Y -0.287 | T -0.161 | V -0.213
L76: C -0.119 | V -0.182 | M -0.093 | W -0.621 | G -0.95 | I -0.236 | Q -0.416 | R -0.677 | F -0.354 | T -0.29 | H -0.317 | A -0.534 | S -0.676 | K -0.876 | E -0.521 | P -0.727
